Test results reported in the RNAGym collection of RNA variant scans (doi:10.7554/elife.90254).

B1: LINE1-mini (parent)
chain: GGCAGAGCUCAACACAGCGUGGCAAAGUGGCUGUGGCUAGACUGCC

Variants of: B1
Assay: self-cleavage, relative activity (ratio to wild type); higher = more cleavage; in vitro, sequencing; the parent is a self-cleaving ribozyme

Variant	self-cleavage
GGCAGAACUCAACACAGCGUGGCAAAGUGGCUGUGGCUCGACUGCC [G7A A39C]	0.08
GGCAGAACUCAACACAGCGUGGCAAAGUGGCUGUGGCUGGACUGCC [G7A A39G]	0.07
GGCAGAACUCAACACAGCGUGGCAAAGUGGCUGUGGCUUGACUGCC [G7A A39U]	0.25
GGCAGUGCUCAACACAGCGUGGCAAAGUGGCUGUGGCUAGACAGCC [A6U U43A]	0.13
GGCAGUGCUCAACACAGCGUGGCAAAGUGGCUGUGGCUAGACGGCC [A6U U43G]	0.08
GGCAGUGCUCAACACAGCGUGGCAAAGUGGCUGUGGCUAGACCGCC [A6U U43C]	0.51
GGCAGUGCUCAACACAGCGUGGCAAAGUGGCUGUGGCUAUACUGCC [A6U G40U]	0.3
GGCAGUGCUCAACACAGCGUGGCAAAGUGGCUGUGGCUAAACUGCC [A6U G40A]	0.35
GGCAGUGCUCAACACAGCGUGGCAAAGUGGCUGUGGCUACACUGCC [A6U G40C]	0.15
GGCAGUGCACAACACAGCGUGGCAAAGUGGCUGUGGCUAGACUGCC [A6U U9A]	0.17
GGCAGUGCCCAACACAGCGUGGCAAAGUGGCUGUGGCUAGACUGCC [A6U U9C]	0.08
GGCAGUGCGCAACACAGCGUGGCAAAGUGGCUGUGGCUAGACUGCC [A6U U9G]	0.15
GGCAGUGCUCAACACAGCGUGGCAAAGUGGAUGUGGCUAGACUGCC [A6U C31A]	0.38
GGCAGUGCUCAACACAGCGUGGCAAAGUGGGUGUGGCUAGACUGCC [A6U C31G]	0.13
GGCAGUGCUCAACACAGCGUGGCAAAGUGGUUGUGGCUAGACUGCC [A6U C31U]	0.31
GGCAGAACUCCACACAGCGUGGCAAAGUGGCUGUGGCUAGACUGCC [G7A A11C]	0.03
GGCAGAACUCUACACAGCGUGGCAAAGUGGCUGUGGCUAGACUGCC [G7A A11U]	0.03
GGCAGAACUCGACACAGCGUGGCAAAGUGGCUGUGGCUAGACUGCC [G7A A11G]	0.02
GGCAGUGCUCAACACAGCGAGGCAAAGUGGCUGUGGCUAGACUGCC [A6U U20A]	0.37
GGCAGUGCUCAACACAGCGCGGCAAAGUGGCUGUGGCUAGACUGCC [A6U U20C]	0.3
GGCAGUGCUCAACACAGCGGGGCAAAGUGGCUGUGGCUAGACUGCC [A6U U20G]	0.55
GGCAGAACUCAACACAGCGUGGCACAGUGGCUGUGGCUAGACUGCC [G7A A25C]	0.14
GGCAGAACUCAACACAGCGUGGCAGAGUGGCUGUGGCUAGACUGCC [G7A A25G]	0.12

Variant	self-cleavage
GGCAGAACUCAACACAGCGUGGCAUAGUGGCUGUGGCUAGACUGCC [G7A A25U]	0.25
GGCAGUGCUCAACACAGCGUGGCAAAGUGGCUGUGGCUAGAUUGCC [A6U C42U]	0.42
GGCAGUGCUCAACACAGCGUGGCAAAGUGGCUGUGGCUAGAAUGCC [A6U C42A]	0.17
GGCAGUGCUCAACACAGCGUGGCAAAGUGGCUGUGGCUAGAGUGCC [A6U C42G]	0.05
GGCAGAACUCAACCCAGCGUGGCAAAGUGGCUGUGGCUAGACUGCC [G7A A14C]	0.5
GGCAGAACUCAACUCAGCGUGGCAAAGUGGCUGUGGCUAGACUGCC [G7A A14U]	0.16
GGCAGAACUCAACGCAGCGUGGCAAAGUGGCUGUGGCUAGACUGCC [G7A A14G]	0.24
GGCAGUCCUCAACACAGCGUGGCAAAGUGGCUGUGGCUAGACUGCC [A6U G7C]	0.19
GGCAGUUCUCAACACAGCGUGGCAAAGUGGCUGUGGCUAGACUGCC [A6U G7U]	0.14
GGCAGUACUCAACACAGCGUGGCAAAGUGGCUGUGGCUAGACUGCC [A6U G7A]	0.26
GGCAGUGCUCAACACAGCGUGGAAAAGUGGCUGUGGCUAGACUGCC [A6U C23A]	0.9
GGCAGUGCUCAACACAGCGUGGGAAAGUGGCUGUGGCUAGACUGCC [A6U C23G]	0.46
GGCAGUGCUCAACACAGCGUGGUAAAGUGGCUGUGGCUAGACUGCC [A6U C23U]	0.89
GGCAGUGCUCAACACAGCGUGGCAAAGUGGCUGUGGCUAGACUCCC [A6U G44C]	0.75
GGCAGUGCUCAACACAGCGUGGCAAAGUGGCUGUGGCUAGACUACC [A6U G44A]	0.64
GGCAGUGCUCAACACAGCGUGGCAAAGUGGCUGUGGCUAGACUUCC [A6U G44U]	0.54
GGCAGUGCUCAACACACCGUGGCAAAGUGGCUGUGGCUAGACUGCC [A6U G17C]	0.59
GGCAGUGCUCAACACAACGUGGCAAAGUGGCUGUGGCUAGACUGCC [A6U G17A]	0.11
GGCAGUGCUCAACACAUCGUGGCAAAGUGGCUGUGGCUAGACUGCC [A6U G17U]	0.26
GGCAGUGCUCAACACAGCGUGGCAAAGUGGCUGUGGCUAGACUGCA [A6U C46A]	0.74
GGCAGUGCUCAACACAGCGUGGCAAAGUGGCUGUGGCUAGACUGCG [A6U C46G]	0.41
GGCAGUGCUCAACACAGCGUGGCAAAGUGGCUGUGGCUAGACUGCU [A6U C46U]	0.75
GGCAGUGCUCAACACAGCGUGGCAAAGUGGCUAUGGCUAGACUGCC [A6U G33A]	0.1

Variant	self-cleavage
GGCAGUGCUCAACACAGCGUGGCAAAGUGGCUUUGGCUAGACUGCC [A6U G33U]	0.16
GGCAGUGCUCAACACAGCGUGGCAAAGUGGCUCUGGCUAGACUGCC [A6U G33C]	0.43
GGCAGUGCUCAACACAGCAUGGCAAAGUGGCUGUGGCUAGACUGCC [A6U G19A]	0.64
GGCAGUGCUCAACACAGCCUGGCAAAGUGGCUGUGGCUAGACUGCC [A6U G19C]	0.45
GGCAGUGCUCAACACAGCUUGGCAAAGUGGCUGUGGCUAGACUGCC [A6U G19U]	0.46
GGCAGUGCUCAACACAGCGUGGCAAAGGGGCUGUGGCUAGACUGCC [A6U U28G]	0.6
GGCAGUGCUCAACACAGCGUGGCAAAGAGGCUGUGGCUAGACUGCC [A6U U28A]	0.4
GGCAGUGCUCAACACAGCGUGGCAAAGCGGCUGUGGCUAGACUGCC [A6U U28C]	0.74
GGCAGAACUCAACACAGCGUGGCAACGUGGCUGUGGCUAGACUGCC [G7A A26C]	0.18
GGCAGAACUCAACACAGCGUGGCAAGGUGGCUGUGGCUAGACUGCC [G7A A26G]	0.24
GGCAGAACUCAACACAGCGUGGCAAUGUGGCUGUGGCUAGACUGCC [G7A A26U]	0.21
GGCAGUGCUCAACACAGCGUGGCAAAGUGGCUGUGGCCAGACUGCC [A6U U38C]	0.27
GGCAGUGCUCAACACAGCGUGGCAAAGUGGCUGUGGCAAGACUGCC [A6U U38A]	0.23
GGCAGUGCUCAACACAGCGUGGCAAAGUGGCUGUGGCGAGACUGCC [A6U U38G]	0.04
GGCAGUGCUCAACACAGCGUGUCAAAGUGGCUGUGGCUAGACUGCC [A6U G22U]	0.79
GGCAGUGCUCAACACAGCGUGACAAAGUGGCUGUGGCUAGACUGCC [A6U G22A]	0.57
GGCAGUGCUCAACACAGCGUGCCAAAGUGGCUGUGGCUAGACUGCC [A6U G22C]	0.37
GGCAGUGCUCAACACAGCGUGGCAAAGUGACUGUGGCUAGACUGCC [A6U G30A]	1.65
GGCAGUGCUCAACACAGCGUGGCAAAGUGCCUGUGGCUAGACUGCC [A6U G30C]	1.36
GGCAGUGCUCAACACAGCGUGGCAAAGUGUCUGUGGCUAGACUGCC [A6U G30U]	1.27
GGCAGUGCUCAACACAGCGUGGCAAAGUGGCUGUGGCUAGACUGAC [A6U C45A]	0.66
GGCAGUGCUCAACACAGCGUGGCAAAGUGGCUGUGGCUAGACUGUC [A6U C45U]	1.18
GGCAGUGCUCAACACAGCGUGGCAAAGUGGCUGUGGCUAGACUGGC [A6U C45G]	0.3

Variant	self-cleavage
GGCAGUGCUCAACACAGCGUGGCAAAGUGGCCGUGGCUAGACUGCC [A6U U32C]	0.1
GGCAGUGCUCAACACAGCGUGGCAAAGUGGCAGUGGCUAGACUGCC [A6U U32A]	0.15
GGCAGUGCUCAACACAGCGUGGCAAAGUGGCGGUGGCUAGACUGCC [A6U U32G]	0.13
GGCAGAACUAAACACAGCGUGGCAAAGUGGCUGUGGCUAGACUGCC [G7A C10A]	0.05
GGCAGUGCUCAACACAGCGUGGCAAAGUGGCUGUGGGUAGACUGCC [A6U C37G]	0.04
GGCAGUGCUCAACACAGCGUGGCAAAGUGGCUGUGGUUAGACUGCC [A6U C37U]	0.07
GGCAGUGCUCAACACAGCGUGGCAAAGUGGCUGUGGAUAGACUGCC [A6U C37A]	0.08
GGCAGUGCUCAACACAGCGUGGCAAAGUGGCUGUGACUAGACUGCC [A6U G36A]	0.26
GGCAGUGCUCAACACAGCGUGGCAAAGUGGCUGUGCCUAGACUGCC [A6U G36C]	0.25
GGCAGUGCUCAACACAGCGUGGCAAAGUGGCUGUGUCUAGACUGCC [A6U G36U]	0.08
GGCAGUGCUCAACACAGCGUCGCAAAGUGGCUGUGGCUAGACUGCC [A6U G21C]	0.52
GGCAGUGCUCAACACAGCGUAGCAAAGUGGCUGUGGCUAGACUGCC [A6U G21A]	2.16
GGCAGUGCUCAACACAGCGUUGCAAAGUGGCUGUGGCUAGACUGCC [A6U G21U]	0.76
GGCAGAACUCAACACAGCGUGGCAAAGUGGCUGUGGCUAGUCUGCC [G7A A41U]	0.18
GGCAGAACUCAACACAGCGUGGCAAAGUGGCUGUGGCUAGGCUGCC [G7A A41G]	0.12
GGCAGAACUCAACACAGCGUGGCAAAGUGGCUGUGGCUAGCCUGCC [G7A A41C]	0.21
GGCAGAACUCAACACCGCGUGGCAAAGUGGCUGUGGCUAGACUGCC [G7A A16C]	0.13
GGCAGAACUCAACACUGCGUGGCAAAGUGGCUGUGGCUAGACUGCC [G7A A16U]	0.32
GGCAGAACUCAACACGGCGUGGCAAAGUGGCUGUGGCUAGACUGCC [G7A A16G]	0.28
GGCAGUGCUCAACACAGCGUGGCAAAGUGGCUGUAGCUAGACUGCC [A6U G35A]	0.12
GGCAGUGCUCAACACAGCGUGGCAAAGUGGCUGUCGCUAGACUGCC [A6U G35C]	0.16
GGCAGUGCUCAACACAGCGUGGCAAAGUGGCUGUUGCUAGACUGCC [A6U G35U]	0.2
GGCAGAACUCAACACAGCGUGGCAAAGUGGCUGUGGCUAGACUGCC [G7A]	0.2

Variant	self-cleavage
GGCAGUGCUCAACACAGCGUGGCAAAGUAGCUGUGGCUAGACUGCC [A6U G29A]	0.79
GGCAGUGCUCAACACAGCGUGGCAAAGUUGCUGUGGCUAGACUGCC [A6U G29U]	0.66
GGCAGUGCUCAACACAGCGUGGCAAAGUCGCUGUGGCUAGACUGCC [A6U G29C]	0.34
GGCAGUGCUCAACACAGCGUGGCAAAGUGGCUGGGGCUAGACUGCC [A6U U34G]	0.28
GGCAGUGCUCAACACAGCGUGGCAAAGUGGCUGCGGCUAGACUGCC [A6U U34C]	0.12
GGCAGUGCUCAACACAGCGUGGCAAAGUGGCUGAGGCUAGACUGCC [A6U U34A]	0.06
GGCAGAAAUCAACACAGCGUGGCAAAGUGGCUGUGGCUAGACUGCC [G7A C8A]	0.35
GGCAGAAGUCAACACAGCGUGGCAAAGUGGCUGUGGCUAGACUGCC [G7A C8G]	0.17
GGCAGAAUUCAACACAGCGUGGCAAAGUGGCUGUGGCUAGACUGCC [G7A C8U]	0.43
GGCAGAACUCAGCACAGCGUGGCAAAGUGGCUGUGGCUAGACUGCC [G7A A12G]	0.05
GGCAGAACUCAUCACAGCGUGGCAAAGUGGCUGUGGCUAGACUGCC [G7A A12U]	0.15
GGCAGAACUCACCACAGCGUGGCAAAGUGGCUGUGGCUAGACUGCC [G7A A12C]	0.02
GGCAGUGCUCAACACAGGGUGGCAAAGUGGCUGUGGCUAGACUGCC [A6U C18G]	0.24
GGCAGUGCUCAACACAGUGUGGCAAAGUGGCUGUGGCUAGACUGCC [A6U C18U]	0.93
GGCAGAACUCAACACAGCGUGGCCAAGUGGCUGUGGCUAGACUGCC [G7A A24C]	0.12
GGCAGAACUCAACACAGCGUGGCUAAGUGGCUGUGGCUAGACUGCC [G7A A24U]	0.16
GGCAGAACUCAACACAGCGUGGCGAAGUGGCUGUGGCUAGACUGCC [G7A A24G]	0.16
GGCAGUGCUCAACACAGCGUGGCAAAUUGGCUGUGGCUAGACUGCC [A6U G27U]	0.58
GGCAGUGCUCAACACAGCGUGGCAAACUGGCUGUGGCUAGACUGCC [A6U G27C]	0.38
GGCAGUGCUCAACACAGCGUGGCAAAAUGGCUGUGGCUAGACUGCC [A6U G27A]	0.42
